# Tested on: subjects with previously treated locally advanced or metastatic urothelial cancer
# Conditions: in vivo
# Excerpt: The Safety Analysis Set (SAF) will be used for the safety analysis. All subjects who are randomized and received study drug will be included in the SAF. The frequency of AEs and the serious AEs will be summarized by MedDRA system organ class and preferred term. In addition, summary statistics will be provided for the following safety parameters: • Laboratory values • Vital sign measurements • ECOG PS
# An AE is any untoward medical occurrence in a subject, temporally associated with the use of a medicinal product, whether or not considered related to the medicinal product. An AE can therefore be any unfavorable and unintended sign (including an abnormal laboratory finding), symptom, or disease (new or exacerbated) temporally associated with the use of a medicinal product.
# AEs, including abnormal clinical laboratory values, will be graded using the NCI-CTCAE guidelines (Version 4.03).
# The safety analysis set (SAF), which consists of all subjects who received any amount of study drug, will be used for safety analyses.
# SAF was used to perform all safety analysis. All treated subjects were analyzed according to the treatment they received.
# The number and percentage of AEs by severity were also summarized. All AEs were listed.
# A study drug-related TEAE is defined as any TEAE with a causal relationship of YES by the investigator. AEs of interest as classified by customized MedDRA queries and/or standard MedDRA queries were also summarized.
substance,measurement,value
enfortumab vedotin,"Death, %",(43.9%)
same,"Drug-Related Serious TEAE, %",(22.6%)
same,"Drug-Related TEAE Leading to Death, %",(2.4%)
same,"Drug-Related TEAE Leading to Death, Exclusing Disease Progression, %",(2.4%)
same,"Drug-Related TEAE Leading to Withdrawal of Treatment, %",(13.5%)
same,"Drug-Related TEAE with CTCAE Grade >=3, %",(51.4%)
same,"Drug-Related TEAE, %",(93.9%)
same,"Serious TEAE, %",(46.6%)
same,"TEAE Leading to Death, %",(7.1%)
same,"TEAE Leading to Death, Exclusing Disease Progression, %",(3.7%)
same,"TEAE Leading to Withdrawal of Treatment, %",(17.2%)
same,"TEAE Leading to dose interruption, %",(60.8) %
same,"TEAE Leading to dose reduction, %",(34.1) %
same,"TEAE with CTCAE Grade >=3, %",(70.9%)
same,"TEAE, %",(98.0%)
same,"TEAE: Alopecia, %",(47.0) %
same,"TEAE: Anemia, %",(19.9) %
same,"TEAE: Constipation, %",(27.7) %
same,"TEAE: Decreased appetite, %",(40.9) %
same,"TEAE: Diarrhea, %",(34.8) %
same,"TEAE: Dysgeusia, %",(25.0) %
same,"TEAE: Fatigue, %",(36.1) %
same,"TEAE: Nausea, %",(30.1) %
same,"TEAE: Peripheral sensory neuropathy, %",(34.5) %
same,"TEAE: Pruritis, %",(34.5) %
same,"TEAE: Pyrexia, %",(22.0) %
same,"TRAE Leading to dose interruption: Anemia, %",(2.7) %
same,"TRAE Leading to dose interruption: Asthenia, %",(2.0) %
same,"TRAE Leading to dose interruption: Diarrhea, %",(2.0) %
same,"TRAE Leading to dose interruption: Drug eruption, %",(2.4) %
same,"TRAE Leading to dose interruption: Fatigue, %",(5.4) %
same,"TRAE Leading to dose interruption: Neuropathy peripheral, %",(3.0) %
same,"TRAE Leading to dose interruption: Neutropenia, %",(2.0) %
same,"TRAE Leading to dose interruption: Neutrophil count decreased, %",(5.1) %
same,"TRAE Leading to dose interruption: Peripheral sensory neuropathy, %",(15.5) %
same,"TRAE Leading to dose interruption: Rash maculo-papular, %",(4.4) %
same,"TRAE Leading to dose interruption: Rash, %",(3.4) %
same,"TRAE Leading to dose reduction: Decreased appetite, %",(3.4) %
same,"TRAE Leading to dose reduction: Fatigue, %",(2.7) %
same,"TRAE Leading to dose reduction: Neutropenia, %",(1.7) %
same,"TRAE Leading to dose reduction: Neutrophil count decreased, %",(2.0) %
same,"TRAE Leading to dose reduction: Peripheral sensory neuropathy, %",(7.1) %
same,"TRAE Leading to dose reduction: Rash maculo-papular, %",(4.4) %
same,"TRAE Leading to dose withdrawal: Peripheral sensory neuropathy, %",(2.4) %

# From patent US20230330251A1, “METHODS FOR TREATING CANCERS WITH ANTIBODY DRUG CONJUGATES (ADC) THAT BIND TO 191P4D12 PROTEINS” (AGENSYS, INC., priority 2020, published 2023)
